{
  "source": "patent US20160000891A1",
  "molecular_target": "PF-4 in cynomolgus plasma (cynomolgus)",
  "experiment": "aligned sandwich ELISA, cynomolgus plasma",
  "data": [
    {"substance": "monoclonal anti-HPF4 antibody (Abcam cat. no.: ab49735)", "values": [
      {"measurement": "AUC Ratio (vs anti-HPF4)", "value": 1},
      {"measurement": "anti-HPF4 AUC mean", "value": 2.79}
    ]}
  ]
}
